This note sets out measurements from the RNAGym collection of RNA variant scans (doi:10.7554/elife.80360).

The chains are these.
B1: CPEB3 Ribozyme (parent)
chain: GGGGGCCACAGCAGAAGCGUUCACGUCGCGGCCCCUGUCAGAUUCUGGUGAAUCUGCGAAUUCUGCUGU

The variants in this series derive from B1. In words: self-cleavage, relative activity (ratio to wild type); higher = more cleavage; co-transcriptional.
For the variant GGGGGCCACAGCAGAAGCGUUCACGUCGCGGCCCCUGACAGAUUCUUGUGAAUCUGCGAAUUCUGCUGU [U38A G47U], the self-cleavage turned out to be 1.

As to GGGGGCCACAGCAGAAGCGUUCACGUCGCGGCCCCUGACAGAUUCUAGUGAAUCUGCGAAUUCUGCUGU [U38A G47A], the self-cleavage was 0.916.

With GGGGGCCACAGCAGAAGCGUUCACGUCGCGGCCCCUGACAGAUUCUCGUGAAUCUGCGAAUUCUGCUGU [U38A G47C], the self-cleavage came out at 0.937.

On to GGGGGCCACAGCAGAAGCGUUCACGUCGCGGCCCCUGACAGAUUCUGGGGAAUCUGCGAAUUCUGCUGU [U38A U49G], for which the self-cleavage came to 0.962.

Turning to GGGGGCCACAGCAGAAGCGUUCACGUCGCGGCCCCUGACAGAUUCUGGAGAAUCUGCGAAUUCUGCUGU [U38A U49A], the self-cleavage was 0.846.

Take GGGGGCCACAGCAGAAGCGUUCACGUCGCGGCCCCUGACAGAUUCUGGCGAAUCUGCGAAUUCUGCUGU [U38A U49C]: the self-cleavage came to 0.899.

In the case of GGGGGCCACAGCAGAAGCGUUCACGUCGCGGCCCCUGCCAGAUUUUGGUGAAUCUGCGAAUUCUGCUGU [U38C C45U], the self-cleavage amounted to 0.922.

As for GGGGGCCACAGCAGAAGCGUUCACGUCGCGGCCCCUGCCAGAUUAUGGUGAAUCUGCGAAUUCUGCUGU [U38C C45A], the self-cleavage came to 0.885.

For GGGGGCCACAGCAGAAGCGUUCACGUCGCGGCCCCUGACAGAUUCUGGUGAAUCUGCGAAGUCUGCUGU [U38A U61G], the self-cleavage was 0.637.

As for GGGGGCCACAGCAGAAGCGUUCACGUCGCGGCCCCUGACAGAUUCUGGUGAAUCUGCGAAAUCUGCUGU [U38A U61A], the self-cleavage came out at 0.782.

As to GGGGGCCACAGCAGAAGCGUUCACGUCGCGGCCCCUGACAGAUUCUGGUGAAUCUGCGAACUCUGCUGU [U38A U61C], the self-cleavage turned out to be 0.507.

Turning to GGGGGCCACAGCAGAAGCGUUCACGUCGCGGCCCCUGCCAGAUUCUGGUGAAUCUGCGAAUUCUGAUGU [U38C C66A], the self-cleavage stood at 0.687.

Consider GGGGGCCACAGCAGAAGCGUUCACGUCGCGGCCCCUGCCAGAUUCUGGUGAAUCUGCGAAUUCUGGUGU [U38C C66G], for which the self-cleavage was found to be 0.717.

Regarding GGGGGCCACAGCAGAAGCGUUCACGUCGCGGCCCCUGACAGAUUCGGGUGAAUCUGCGAAUUCUGCUGU [U38A U46G], the self-cleavage came to 0.943.

For GGGGGCCACAGCAGAAGCGUUCACGUCGCGGCCCCUGCCAGAUUCUUGUGAAUCUGCGAAUUCUGCUGU [U38C G47U], the self-cleavage was found to be 0.925.

With GGGGGCCACAGCAGAAGCGUUCACGUCGCGGCCCCUGCCAGAUUCUAGUGAAUCUGCGAAUUCUGCUGU [U38C G47A], the self-cleavage amounted to 0.933.

With GGGGGCCACAGCAGAAGCGUUCACGUCGCGGCCCCUGCCAGAUUCUGAUGAAUCUGCGAAUUCUGCUGU [U38C G48A], the self-cleavage was determined as 0.963.

As to GGGGGCCACAGCAGAAGCGUUCACGUCGCGGCCCCUGACAGAUGCUGGUGAAUCUGCGAAUUCUGCUGU [U38A U44G], the self-cleavage was 0.875.

As to GGGGGCCACAGCAGAAGCGUUCACGUCGCGGCCCCUGACAGAUACUGGUGAAUCUGCGAAUUCUGCUGU [U38A U44A], the self-cleavage is 0.854.

For the variant GGGGGCCACAGCAGAAGCGUUCACGUCGCGGCCCCUGCCAGAUUCUGGUGAAUCUUCGAAUUCUGCUGU [U38C G56U], the self-cleavage came out at 0.658.

Turning to GGGGGCCACAGCAGAAGCGUUCACGUCGCGGCCCCUGCCAGAUUCUGGUGAAUCUACGAAUUCUGCUGU [U38C G56A], the self-cleavage amounted to 0.879.

As for GGGGGCCACAGCAGAAGCGUUCACGUCGCGGCCCCUGCCAGAUUCUGGUGAAUCUCCGAAUUCUGCUGU [U38C G56C], the self-cleavage stood at 0.401.

Take GGGGGCCACAGCAGAAGCGUUCACGUCGCGGCCCCUGCCAGAUUCUGGUGAAUCUGGGAAUUCUGCUGU [U38C C57G]: the self-cleavage was found to be 0.369.

As for GGGGGCCACAGCAGAAGCGUUCACGUCGCGGCCCCUGACAGACUCUGGUGAAUCUGCGAAUUCUGCUGU [U38A U43C], the self-cleavage stood at 0.9.

On to GGGGGCCACAGCAGAAGCGUUCACGUCGCGGCCCCUGACAGAGUCUGGUGAAUCUGCGAAUUCUGCUGU [U38A U43G], for which the self-cleavage was found to be 0.8.

Take GGGGGCCACAGCAGAAGCGUUCACGUCGCGGCCCCUGCCAGAUUCUGGUGAAUGUGCGAAUUCUGCUGU [U38C C54G]: the self-cleavage was 0.643.

Regarding GGGGGCCACAGCAGAAGCGUUCACGUCGCGGCCCCUGCCAGAUUCUGGUGAAUUUGCGAAUUCUGCUGU [U38C C54U], the self-cleavage came out at 0.948.

Take GGGGGCCACAGCAGAAGCGUUCACGUCGCGGCCCCUGACAGAUUCUGGUGAAUCUGCGAAUUCUGCAGU [U38A U67A]: the self-cleavage was 0.941.

Turning to GGGGGCCACAGCAGAAGCGUUCACGUCGCGGCCCCUGACAGAUUCUGGUGAAUCUGCGAAUUCUGCGGU [U38A U67G], the self-cleavage amounted to 0.9.

On to GGGGGCCACAGCAGAAGCGUUCACGUCGCGGCCCCUGCCAGAUUCUGGUGAAUCUGCGUAUUCUGCUGU [U38C A59U], for which the self-cleavage was 0.316.

GGGGGCCACAGCAGAAGCGUUCACGUCGCGGCCCCUGCCAGAUUCUGGUGACUCUGCGAAUUCUGCUGU [U38C A52C]: the self-cleavage was determined as 0.921.

For the variant GGGGGCCACAGCAGAAGCGUUCACGUCGCGGCCCCUGACAGAUUCUGGUGAAUCGGCGAAUUCUGCUGU [U38A U55G], the self-cleavage came out at 0.758.

For the variant GGGGGCCACAGCAGAAGCGUUCACGUCGCGGCCCCUGACAGAUUCUGGUGAAUCCGCGAAUUCUGCUGU [U38A U55C], the self-cleavage stood at 0.846.

Regarding GGGGGCCACAGCAGAAGCGUUCACGUCGCGGCCCCUGACAGAUUCUGGUGAAUCAGCGAAUUCUGCUGU [U38A U55A], the self-cleavage was found to be 0.779.

In the case of GGGGGCCACAGCAGAAGCGUUCACGUCGCGGCCCCUGACAGAUUCUGGUCAAUCUGCGAAUUCUGCUGU [U38A G50C], the self-cleavage was 0.911.

Regarding GGGGGCCACAGCAGAAGCGUUCACGUCGCGGCCCCUGACAGAUUCUGGUUAAUCUGCGAAUUCUGCUGU [U38A G50U], the self-cleavage amounted to 0.894.

On to GGGGGCCACAGCAGAAGCGUUCACGUCGCGGCCCCUGCCAGGUUCUGGUGAAUCUGCGAAUUCUGCUGU [U38C A42G], for which the self-cleavage worked out at 0.938.

In the case of GGGGGCCACAGCAGAAGCGUUCACGUCGCGGCCCCUGCCAGCUUCUGGUGAAUCUGCGAAUUCUGCUGU [U38C A42C], the self-cleavage amounted to 0.885.

For GGGGGCCACAGCAGAAGCGUUCACGUCGCGGCCCCUGCCAGUUUCUGGUGAAUCUGCGAAUUCUGCUGU [U38C A42U], the self-cleavage was 0.827.
